The results in this text go back to article PMC9200798.

The target in data set [1] is Leishmania major actin (Leishmania major) (UniProt P45520). The data set can be described thus: microfluidics-coupled TIRF microscopy of single filaments; barbed end polymerization from surface-anchored spectrin-actin seeds, G-actin with equimolar profilin in F-buffer (5 mM Tris-HCl pH 7.4, 50 mM KCl, 1 mM MgCl2); segmented, mixed or ATP-ATTO-488 filaments.
Data set [2] has the same target. The data set can be described thus: microfluidics-coupled TIRF microscopy of single filaments; pointed end depolymerization: pre-polymerized ADP-F-actin injected over 10 nM biotin-gelsolin held on neutravidin, F-buffer with 0.4 mM CaCl2, then F-buffer.
Data set [3] has the same target.
A further data set has as its system P45520. The experiment in a line: microfluidics-coupled TIRF microscopy of single filaments; barbed end depolymerization of ADP-Pi filaments, F-buffer with KCl replaced by 40 mM K2HPO4 and 10 mM KH2PO4. The settings on record: other: microfluidics-coupled TIRF microscopy of single filaments.
In data set [4] the target is rabbit skeletal muscle α-actin (rabbit (Oryctolagus cuniculus)) (UniProt P68135).
The target of data set [5] is Leishmania major actin (Leishmania major) (UniProt P45520). This is another data set of the same source.

As for “Leishmania major actin (from UniProt P45520 2-376) (natural protein)”, in data set [1], the barbed end polymerization rate constant (with equimolar LmProfilin) (subunits/s/μM) stood at 6. In data set [2], this substance returned a pointed end depolymerization rate, ADP-actin of 3.5 subunits/s. “Leishmania major cofilin (natural protein)”: the global fragmentation rate of LmActin filaments by LmCofilin against RbActin filaments by mammalian cofilin-1, microfluidics-coupled TIRF microscopy in data set [3] was determined as 100 fold. As to Leishmania major actin, the “barbed end depolymerization rate, ADP-Pi-actin” value with P45520 is recorded as around 6 subunits/s.

For the substance “Leishmania major twinfilin (natural protein)”, the depolymerization rate of ADP-RbActin filaments with LmTwf in data set [4] turned out to be 0.5 subunits/s. In addition, in data set [5], the barbed end depolymerization rate of ADP-LmActin filaments without actin monomers, with LmTwf (0.1 and 1 μM) against buffer only worked out at 3 subunits/s; the barbed end polymerization rate with 1 μM LmActin, 1 μM LmProfilin and 0–4 μM LmTwf; net depolymerization above 0.2 μM LmTwf is 8 subunits/s.
